The values below come from patent publication US20130296258A1 (Pieris, published 2013).

In experiment [1] the target is T1, Recombinant human Glypican-3 (human, UniProt P51654 25-559, limits assumed, randomly biotinylated via Lysine residues (EZ-Link Sulfo-NHS-LC-LC-Biotin) where captured on Neutravidin; not biotinylated where used as competitor in solution).
T1 construct: Bought protein; The biotinylated and the non-biotinylated preparation are written as one molecule; also called GPC3; GPC-3
As to the kind of experiment: competition ELISA: constant mutein pre-incubated with a dilution series of non-biotinylated human Glypican-3, free mutein detected on plate-captured biotinylated human Glypican-3. The method, then: The binding affinity of the Lcn2 muteins to non-modified Glypican-3 in solution was evaluated in a competition ELISA approach. Therefore, a constant concentration of 1 μg/ml biotinylated human Glypican-3 (R&D Systems) was captured on the surface of a polystyrol plate (Greiner, GE) via Neutravidin (Thermo Scientific, 5 μg/ml, GE). In parallel a two step dilution series of non-biotinylated human Glypican-3 starting from 1.5 μM was incubated with a constant concentration of GPC3-specific mutein for 1 h at room temperature in a non-protein binding 96 well polypropylene plate (Nunc, GE). The constant concentration of lipocalin muteins corresponds to the EC₅₀ of the respective muteins as determined in a direct ELISA as described above in this example. In the following the mixture of non-modified human GPC3 and lipocalin mutein was transferred onto the GPC3-captured Neutravidin plate. The biotinylated GPC3 was allowed to compete with the non-modified GPC3 for Anticalin binding for 1 h at room temperature. During these 1 h, free lipcocalin mutein was bound to the captured GPC3 and detected via a rabbit anti-strep-tag II polyconal antibody (GenScript, USA). A goat anti-rabbit IgG-HRP conjugate (Abcam, UK) was employed as secondary detection antibody. Parallel to the competition assay, anticalin binding was determined on the same plate in a “direct” ELISA, in order to obtain a standard curve linking the RFU values to anticalin concentration. This curve was then used to standardize competition data to the level of anticalins bounds to the plate and fitted with Graphpad software. IC₅₀ values correspond to the half-maximum amount of lipocalin mutein bound to the plate.
A general note: An ELISA detects its analyte on a solid surface through an enzyme-linked reagent.

Experiment [2] has as its target T2, cyno GPC3-SK-HEP1 (Macaca fascicularis, UniProt A0A2K5VK50).
T2 construct: cell-surface protein on transfected cells; also called cynomolgus GPC3; cyno GPC3 transfected SK-Hep1 cells
Nature of the experiment: flow cytometry on SK-HEP1 cells stably transfected with cynomolgus GPC3, detection via rabbit anti-hNGAL antiserum and anti-rabbit IgG-PE. The method, then: (§1) Empty vector control cells were also obtained and analyzed in parallel. Detection of GPC3 was achieved using mouse anti-glypican 3 clone 1G12 monoclonal antibody (DCS).
(§2) In order to assess binding of muteins to the GPC3 on the cell surface, 200,000 cells in PBS/2% FCS were used in each binding reaction. Reactions were performed on ice in 30 μl for 2 h. Following two washing steps in PBS/2% FCS a secondary rabbit anti-hNGAL scaffold antiserum was employed for 30 min. followed another two wash steps. […] Measurements were performed on a FACSCalibur flow cytometer where 10,000 events were acquired for each sample. Geometric mean values were compiled in FlowJo (Treestar software) and fitted to a sigmoidal dose response model in the Prism 5 program (GraphPad) to obtain EC50 values.

In experiment [3] the target is T1, Recombinant human Glypican-3. As to the kind of experiment: flow cytometry on SK-HEP1 cells stably transfected with human GPC3, detection via rabbit anti-hNGAL antiserum and anti-rabbit IgG-PE. The method, then: as §1, §2
(A flow cytometer gives signals particle by particle.)

Experiment [4] shares this target. As to the kind of experiment: SPR (Biacore T100), Glypican-3 amine-coupled to a CM5 chip, mutein as analyte, evaluated conc 40/120 nM, 1:1 model. The method, then:
(§3) Real time analysis of the binding of the Lcn2 muteins to Glypican-3 was performed on a Biacore T100 system (GE Healthcare Bio-Sciences AB, Uppsala, Sweden) using HBS-EP+ (BR-1006-69, GE Healthcare Bio-Sciences AB, Uppsala, Sweden) as running buffer. A 10 μg/mL solution of Glypican-3 in 10 mM sodium acetate pH 4.5 was immobilized onto a CM5 chip (GE Healthcare Bio-Sciences AB, Uppsala, Sweden) using standard amine coupling chemistry, resulting in a ligand density of 467 RU. The purified Lcn2 muteins were applied in concentrations of 40 nM and 120 nM at a flow rate of 30 μL/min. The dilutions were injected with association times of 120 sec and dissociation times of 420 sec to obtain ka and kd information. Regeneration of the ligand was achieved by injecting either 6 M Guanidinium-HCl (120 sec/300 sec) or 3 M MgCl2 (900 sec) with a flow rate of 10 μL/min. Injection of regeneration solutions was followed by an extra wash step with running buffer and a stabilization period of 180 sec.
(§4) The data were double-referenced by subtraction of the corresponding signals measured for the control channel, which had been activated and blocked with ethanolamine and by substraction of buffer injections from the binding responses. ka and kd for the binding reaction were determined using Biacore T100 Evaluation Software V2.0.1 for data processing and kinetic fitting. The data were globally fit with 1:1 binding model.
In general terms: Surface plasmon resonance follows binding to a sensor surface in real time, without labels.

The target is the same in experiment [5]. Nature of the experiment: direct ELISA; biotinylated human Glypican-3 (1 ug/ml) captured via Neutravidin, dilution series of purified mutein. The method, then:
A “direct” ELISA was performed to verify the binding affinity and specificity of the selected Lcn2 muteins. Therefore, a constant concentration of 1 μg/ml biotinylated human Glypican 3 (R&D Systems) was captured on the surface of a polystyrol plate (Greiner, GE) via BSA blocked Neutravidin (Thermo Scientific, 5 μg/ml). Two step dilution series of purified Lcn2 muteins were incubated with the captured GPC-3 for 1 h at room temperature and detected either via the Strep-tag II using a rabbit anti-strep-tag II polyconal antibody (GenScript, USA) or by using a scaffold-specific polyclonal rabbit antibody. In both cases an anti rabbit IgG-HRP conjugate (Abcam, UK) was employed as secondary detection antibody.
The absorption ΔA at […] was measured in an ELISA reader (Tecan, GE) and the data were fitted with Graphpad Prism software (Statcom, USA).

Experiment [6] has as its target T3, mouse GPC3-SK-HEP1 (mouse, UniProt Q8CFZ4).
T3 construct: cell-surface protein on transfected cells; also called mouse GPC3 transfected SK-Hep1 cells
Nature of the experiment: flow cytometry on SK-HEP1 cells stably transfected with mouse GPC3, detection via rabbit anti-hNGAL antiserum and anti-rabbit IgG-PE. The method, then:
as §1, §2

The target of experiment [7] is T1, Recombinant human Glypican-3. Nature of the experiment: SPR (Biacore T100), Glypican-3 amine-coupled to a CM5 chip, mutein as analyte, evaluated conc 120 nM, 1:1 model. The method, then: as §3, §4

Where only a bound is given, the exact number is not on record here.

T3 sequence (Q8CFZ4 25-553 limits assumed): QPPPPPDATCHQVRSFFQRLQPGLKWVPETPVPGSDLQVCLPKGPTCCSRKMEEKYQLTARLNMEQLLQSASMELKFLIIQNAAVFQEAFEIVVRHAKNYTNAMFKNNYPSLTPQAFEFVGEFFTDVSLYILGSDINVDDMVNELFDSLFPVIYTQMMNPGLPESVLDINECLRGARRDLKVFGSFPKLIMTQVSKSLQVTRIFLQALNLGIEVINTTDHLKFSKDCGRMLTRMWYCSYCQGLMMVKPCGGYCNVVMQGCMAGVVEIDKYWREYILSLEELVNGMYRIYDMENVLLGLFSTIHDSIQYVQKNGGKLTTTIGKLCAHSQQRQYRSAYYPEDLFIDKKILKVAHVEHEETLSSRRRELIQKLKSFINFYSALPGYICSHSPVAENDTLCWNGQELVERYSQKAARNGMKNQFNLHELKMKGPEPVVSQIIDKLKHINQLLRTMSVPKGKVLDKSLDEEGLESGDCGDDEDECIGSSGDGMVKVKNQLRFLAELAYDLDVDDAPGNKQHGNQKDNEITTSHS
T1 sequence (P51654 25-559 limits assumed): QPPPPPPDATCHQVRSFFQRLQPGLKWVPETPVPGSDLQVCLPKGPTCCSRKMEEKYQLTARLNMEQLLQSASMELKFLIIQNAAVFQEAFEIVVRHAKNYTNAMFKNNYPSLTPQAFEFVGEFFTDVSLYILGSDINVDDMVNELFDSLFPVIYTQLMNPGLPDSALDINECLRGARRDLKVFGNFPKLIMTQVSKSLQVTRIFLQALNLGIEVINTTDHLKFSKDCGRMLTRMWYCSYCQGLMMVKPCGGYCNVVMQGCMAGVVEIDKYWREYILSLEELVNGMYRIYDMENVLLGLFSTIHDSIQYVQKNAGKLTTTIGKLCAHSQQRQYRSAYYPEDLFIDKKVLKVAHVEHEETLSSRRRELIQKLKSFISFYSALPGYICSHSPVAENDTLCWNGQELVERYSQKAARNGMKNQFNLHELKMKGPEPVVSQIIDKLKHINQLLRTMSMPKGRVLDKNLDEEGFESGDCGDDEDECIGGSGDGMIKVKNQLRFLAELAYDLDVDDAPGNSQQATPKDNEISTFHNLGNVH

B1: PIE-G3F (designed binder)
chain: QDSTSDLIPAPPLSKVPLQQNFQDNQFHGKWYVVGIAGNGQLREDKDPWKMSATIYELKEDKSYNVTSVRFRLKKCSYWIYTFVPGSQPGEFTLGGIKSNPGDTSNLVRVVSTNYNQHAMVFFKYVIQNREWFIITLYGRTKELTSELKENFIRFSKSLGLPENHIVFPVPIDQCIDGSAWSHPQFEK
notes: C-terminal Strep-tag II; also called Lcn2 mutein; not shown: C-terminal Strep-tag II
One may read the IC50 as the concentration that inhibits the measured activity by half. As usually defined, the EC50 is the concentration at which the effect is half-maximal. Usually Kd stands for the equilibrium constant for the complex coming apart. Usually koff stands for a measure of how fast the partners let go of each other. The term kon denotes the rate constant with which the complex forms. As to B1, in experiment [1], the IC50 was determined as 0.07 nM. The EC50 in experiment [2] came to 3.2 nM; in experiment [3], 4.7 nM; in experiment [6], 18.7 nM. The results for the Kd in experiment [4] and in experiment [5] were 3.13 nM and 0.35 nM, respectively. Besides, the koff in experiment [4] turned out to be 0.00128 s⁻¹. Moreover, in experiment [4], the kon was determined as 409000 M⁻¹ s⁻¹.

B2: PIE-G3E (designed binder)
chain: QDSTSDLIPAPPLSKVPLQQNFQDNQFHGKWYVVGSAGNHRLREDKDPRKMHATIYELKEDKSYNVTNVTFREKKCHYSIGTFVPGSQPGEFTLGKIKSNPGMTSFLVRVVSTNYNQHAMVFFKKVHQNREQFNITLYGRTKELTSELKENFIRFSKSLGLPENHIVFPVPIDQCIDGSAWSHPQFEK
notes: as for B1
Take B2: the IC50 in experiment [1] turned out to be 0.1 nM. Also, the values for the EC50 in experiment [2], in experiment [3] and in experiment [6] were 0.12 nM, 0.4 nM and 2.7 nM, respectively. Besides, the Kd in experiment [4] was determined as 0.35 nM; in experiment [5] it was 0.2 nM. The koff in experiment [4] was 0.00178 s⁻¹. The association rate constant (kon) in experiment [4] is 5.11e+06 M⁻¹ s⁻¹.

B3: PIE-G3C (designed binder)
chain: QDSTSDLIPAPPLSKVPLQQNFQDNQFHGKWYVVGRAGNVALREDKDPPKMRATIYELKEDKSYNVTNVRFAMKKCMYSIGTFVPGSQPGEFTLGQIKSEPGNTSNLVRVVSTNYNQHAMVFFKEVYQNREIFFITLYGRTKELTSELKENFIRFSKSLGLPENHIVFPVPIDQCIDGSAWSHPQFEK
notes: as for B1
Turning to B3, the IC50 in experiment [1] was found to be 1 nM. Also, the EC50 amounted to 0.2 nM in experiment [2], 0.5 nM in experiment [3] and 3.5 nM in experiment [6]. Also, the Kd in experiment [4] came to 1.21 nM; in experiment [5] it was 0.32 nM. The koff in experiment [4] came to 0.00238 s⁻¹. Also, in experiment [4], the kon is 1.97e+06 M⁻¹ s⁻¹.

B4: PIE-G3D (designed binder)
chain: QDSTSDLIPAPPLSKVPLQQNFQDNQFHGKWYVVGMAGNARLREDKDPVKMTATIYELKEDKSYNVTAVQFRLKKCQYGITTFVPGSQPGEFTLGDIKSIPGLTSMLVRVVSTNYNQHAMVFFKRVRQNREFFDITLYGRTKELTSELKENFIRFSKSLGLPENHIVFPVPIDQCIDGSAWSHPQFEK
notes: as for B1
Regarding B4, the IC50 in experiment [1] was 0.7 nM. The EC50 in experiment [2] was 0.7 nM; in experiment [3], 1 nM; in experiment [6] it was 10.5 nM. For the same molecule, the values for the Kd in experiment [4] and in experiment [5] were 1.4 nM and 0.46 nM, respectively. The koff in experiment [4] was determined as 0.00109 s⁻¹. For the same molecule, the kon in experiment [4] came out at 781000 M⁻¹ s⁻¹.

B5: PIE-G3G (designed binder)
chain: QDSTSDLIPAPPLSKVPLQQNFQDNQFHGKWYVVGMAGNASLREDKDPRKMNATIYELKEDKSYNVTKVRFWHKKCYYSITTFVPGSQPGEFTLGDIKSYPGWTSYLVRVVSTNYNQHAMVFFKGVRQNREWFSITLYGRTKELTSELKENFIRFSKSLGLPENHIVFPVPIDQCIDGSAWSHPQFEK
notes: as for B1
On to B5, for which, in experiment [1], the IC50 turned out to be 0.1 nM. Further, the results for the EC50 in experiment [2], in experiment [3] and in experiment [6] were 0.2 nM, 0.7 nM and 4.3 nM, respectively. For the same molecule, the Kd in experiment [4] was 0.51 nM; in experiment [5], 0.27 nM. Besides, in experiment [4], the koff is 0.000723 s⁻¹. The kon in experiment [4] came to 1.42e+06 M⁻¹ s⁻¹.

B6: PIE-G3A (designed binder)
chain: QDSTSDLIPAPPLSKVPLQQNFQDNQFHGKWYVVGIAGNWILREDKDPPKMRATIYELKEDKSYNVTRVRFDEKKCGYGIATFVPGSQPGEFTLGVIKSRPGITSDLVRVVSTNYNQHAMVFFKFVKQNREYFGITLYGRTKELTSELKENFIRFSKSLGLPENHIVFPVPIDQCIDGSAWSHPQFEK
notes: Made in E. coli from phNGAL98 with a C-terminal Strep-tag II; also called Lcn2 mutein; not shown: C-terminal Strep-tag II
Consider B6, for which the IC50 in experiment [1] amounted to 0.6 nM. In addition, in experiment [2], the EC50 is > 100 nM. Further, the EC50 in experiment [3] is > 100 nM. Also, in experiment [4], the Kd was found to be 3.78 nM, the koff was found to be 0.000603 s⁻¹ and the kon came to 160000 M⁻¹ s⁻¹. Also, the Kd in experiment [5] turned out to be 7.6 nM.

B7: PIE-G3H (designed binder)
chain: QDSTSDLIPAPPLSKVPLQQNFQDNQFHGKWYVVGIAGNYILREDKDPPKMRATIYELKEDKSYNVTRVFFSRKKCDYIIWTFVPGSQPGEFTLGFIKSNPGLTSLLVRVVSTNYNQHAMVFFKWVDQNREVFGITLYGRTKELTSELKENFIRFSKSLGLPENHIVFPVPIDQCIDGSAWSHPQFEK
notes: as for B1
Regarding B7, in experiment [1], the IC50 is 0.23 nM. Besides, the Kd was 1.07 nM in experiment [7] and 0.3 nM in experiment [5]. Also, the koff in experiment [7] was determined as 0.000209 s⁻¹. Also, the kon in experiment [7] is 195000 M⁻¹ s⁻¹. Besides, the EC50 was found to be 98 nM in experiment [2], 49 nM in experiment [3] and 580 nM in experiment [6].

B8: PIE-G3B (designed binder)
chain: QDSTSDLIPAPPLSKVPLQQNFQDNQFHGKWYVVGVAGNAMLREDKDPLKMRATIYELKEDKSYNVTGVSFWRKKCHYKIGTFVPGSQPGEFTLGDIKSGPGQTSNLVRVVSTNYNQHAMVFFKEVRQNREWFAITLYGRTKELTSELKENFIRFSKSLGLPENHIVFPVPIDQCIDGSAWSHPQFEK
notes: as for B1
Take B8: the IC50 in experiment [1] came out at 0.2 nM. Moreover, the figures for the EC50 in experiment [2], in experiment [3] and in experiment [6] were 1.1 nM, 2.5 nM and 2.9 nM, respectively. In addition, the Kd was found to be 0.55 nM in experiment [4] and 0.27 nM in experiment [5]. The koff in experiment [4] is 0.000242 s⁻¹. For the same molecule, the kon in experiment [4] was 438000 M⁻¹ s⁻¹.
